Measured values published in the supplement of paper PMC10567573.

B1: RAB11B (parent)
chain: AVPTDEARAFAEKNNLSFIETSAL

Variants of: B1
Assay: protein stability index of a GFP-peptide fusion (GPS, HEK-293T) (PSI 1-6); higher = more stable
Settings: c terminus: a fixed tail appended
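Further: lentivirally expressed fusions sorted by FACS into six bins by GFP to DsRed ratio, PSI derived from sequencing read proportions per bin multiplied by bin number.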

Protein stability index of substitutions, site by site:
V2: E 3.96; F 2.64; G 2.74; H 3.86; I 2.74; K 2.52; L 3.28; M 3.41; N 3.85; P 3.2; Q 2.34; R 2.35; S 3.09; T 2.62; W 2.52; Y 2.52
P3: A 2.93; C 2.77; D 3.28; E 3.33; F 1.96; G 2.92; H 2.33; I 2.63; K 2.44; L 2.28; M 2.43; N 3.27; Q 3.16; R 2.1; S 2.57; T 3.17; V 3.05; W 2.91; Y 2.55
T4: A 2.45; C 2.78; D 3.63; E 3.23; F 2; G 3.17; H 2.5; I 2.77; K 2; L 2.33; M 1.98; N 2.65; P 2.5; Q 3.05; R 1.77; S 2.6; V 2.78; W 2.21; Y 2.37
D5: A 2.31; C 2.82; E 2.82; F 2.17; G 2.31; H 2.61; I 2.15; K 1.41; L 2.46; M 2.07; N 1.92; P 1.89; Q 2.42; R 2.07; S 2.33; T 2.13; V 1.99; W 1.38; Y 2.08
E6: A 2.45; C 2.46; D 2.95; F 1.66; G 2.58; H 2.61; I 2.71; K 2.04; L 2.32; M 2.19; N 2.25; P 2.93; Q 2.24; R 1.86; S 2.2; T 2; V 2.08; W 2.04; Y 1.67
A7: C 2.47; D 4.09; E 2.92; F 1.98; G 3.14; H 2.23; I 2.39; K 2.5; L 2.16; M 2.27; N 3.1; P 2.86; Q 3.46; R 2.6; S 2.79; T 3.17; V 2.7; W 2.58; Y 2.94
R8: A 2.77; C 2.78; D 3.37; E 3.31; F 2.69; G 3.22; H 2.99; I 2.9; K 3.08; L 2.33; M 2.45; N 3.06; P 2.65; Q 2.45; S 2.46; T 2.67; V 3.04; W 2.94; Y 3.12
A9: C 2.49; D 3.4; E 3.82; F 2.63; G 2.85; H 2.07; I 2.45; K 1.91; L 2.98; M 2.79; N 2.52; P 2.44; Q 3.14; R 2.32; S 2.33; T 3.02; V 2.71; W 1.78; Y 2.48
F10: A 3.38; C 3.1; D 4.06; E 4.11; G 3.12; H 3.74; I 3.33; K 2.89; L 3.19; M 2.9; N 3.25; P 2.73; Q 3.45; R 2.74; S 3.28; T 3.78; V 3.41; W 2.34; Y 3.2
A11: C 3.16; D 3.88; E 3.69; F 2.69; G 2.16; H 2.3; I 2.66; K 2.19; L 2.4; M 2.8; N 2.87; P 2.8; Q 2.85; R 2.35; S 2.68; T 2.71; V 2.3; W 2.48; Y 2.15
E12: A 2.89; C 1.91; D 2.81; F 1.74; G 2.16; H 2.65; I 1.99; K 1.93; L 2.02; M 1.97; N 2.02; P 2.34; Q 2.52; R 2.15; S 2.08; T 2.61; V 2.47; W 1.6; Y 1.93
K13: A 3.08; C 2.47; D 3.24; E 3.9; F 2.49; G 3.17; H 2.24; I 2.09; L 2.14; M 2.09; N 1.59; P 2.12; Q 2.84; R 2.5; S 2.48; T 2.63; V 2.13; W 1.94; Y 1.88
N14: A 2.48; C 2.18; D 3.96; E 4.35; F 2.25; G 2.73; H 2.26; I 2.23; K 3.38; L 2.23; M 2.25; P 2.53; Q 3.47; R 2.27; S 2.84; T 2.88; V 2.18; W 2.83; Y 2.53
L16: A 3.8; C 4.1; D 4.52; E 5.02; F 3.36; G 4.3; H 4.06; I 3.95; K 4.62; M 4.2; N 4.25; P 4.47; Q 4; R 4.42; S 4.37; T 4.57; V 4.29; W 3.25; Y 3.18
S17: A 2.78; C 3; D 3.48; E 4.62; F 2.59; G 3.7; H 3.07; I 2.89; K 3.79; L 2.77; M 3.1; N 2.86; P 4.19; Q 4.23; R 3.41; T 2.93; V 3.15; W 2.64; Y 2.85
F18: A 4.78; C 4.48; D 5.17; E 5.3; G 4.47; H 4.51; I 4.23; K 4.67; L 3.53; M 4.1; N 4.95; P 4.88; Q 4.18; R 4.29; S 4.89; T 4.97; V 4.71; W 3.67; Y 2.97
I19: A 4.6; C 4.34; D 4.99; E 4.59; F 4.37; G 4.64; H 3.49; K 4.79; L 3.25; M 4.21; N 4.1; P 5.04; Q 4.38; R 4.54; S 4.56; T 4.11; V 3.26; W 3.62; Y 3.73
E20: A 2.88; C 2.28; D 2.92; F 1.62; G 2.76; H 2.36; I 1.85; K 3.13; L 2.15; M 2.05; N 1.74; P 3.17; Q 3.35; R 3.02
